Where no end group is shown, it is not given here. The star is where a group is joined. MTSL = 1-oxy-2,2,5,5-tetramethyl-D-pyrroline-3-methyl methanethiosulfonate spin label, CC1(C)C=C(CS*)C(C)(C)N1[O]
B2: TatA_(1–55), truncated E. coli TatA (residues Met1-Gln55) (domain or fragment, Escherichia coli, UniProt P69428 1-55, looked up)
chain: MGGISIWQLLIIAVIVVLLFGTKKLGSIGSDLGASIKGFKKAMSDDEPKQDKTSQ
notes: TatA, Escherichia coli, residues Met1-Gln55; the unstructured C-terminal region removed; 15N-labelled in the relaxation and PRE experiments; source: purified in DPC

How the values were obtained:
[1] = target: the molecule itself; assay: NMR 1H-15N HSQC at decreasing detergent-to-protein ratio; full-length TatA in DPC micelles, 50 mM sodium phosphate pH 7.0, 35°C; DPR lowered from >200; new sets of cross peaks appear
[2] = target: the molecule itself; assay: NMR backbone 15N relaxation (R2/R1); TatA_(1–55) in DPC micelles, DPR ~70, two sets of peaks in the HSQC, 800 MHz, 35°C; monomer to dimer
[3] = target: B2; assay: NMR intermolecular paramagnetic relaxation enhancement (PRE); unlabeled MTSL-tagged TatA_(1–55) cysteine mutant mixed at equal molar ratio with 15N-labeled TatA_(1–55) in DPC, 50 mM sodium phosphate pH 7.0, final DPR 40; reference spectrum after reduction with ascorbic acid; conditions: both partners purified
[4] = target: the molecule itself; assay: solution NMR structure (intermolecular NOEs); disulphide-linked d-MCG-TatA of mixed unlabeled and 13C/15N-labeled MCG-TatA (2:1) in dDPC micelles, DPR about 80, 35°C; 13C/15N-filtered NOESY; 139 inter-subunit NOE restraints; Xplor-NIH

B1: Escherichia coli TatA, wild type, full length (natural protein, UniProt P69428 1-89, looked up)
chain: MGGISIWQLLIIAVIVVLLFGTKKLGSIGSDLGASIKGFKKAMSDDEPKQDKTSQDADFTAKTIADKQADTNQEQAKTEDAKRHDKEQV
notes: TatA, Escherichia coli, 89 amino acids, one transmembrane helix (Ile6-Phe20) and one amphipathic helix (Lys24-Met43); 15N- or 13C/15N-labelled for NMR; also called wt-TatA; wild-type TatA; source: in C12E9 with Superdex 200 gel filtration for blue-native PAGE
binding result [1]: binds

B2
stoichiometry N [2]: 2

B3: TatA_(1–55)-I12C-MTSL (domain or fragment, Escherichia coli, UniProt P69428 1-55, looked up)
chain: MGGISIWQLLIC(MTSL)AVIVVLLFGTKKLGSIGSDLGASIKGFKKAMSDDEPKQDKTSQ
notes: TatA, Escherichia coli, residues Met1-Gln55 with Ile12 mutated to cysteine; source: purified in DPC, unlabeled, tagged with MTSL
stoichiometry N [3]: 2

B4: TatA_(1–55)-I11C-MTSL (domain or fragment, Escherichia coli, UniProt P69428 1-55, looked up)
chain: MGGISIWQLLC(MTSL)IAVIVVLLFGTKKLGSIGSDLGASIKGFKKAMSDDEPKQDKTSQ
notes: TatA, Escherichia coli, residues Met1-Gln55 with Ile11 mutated to cysteine; source: purified in DPC, unlabeled, tagged with MTSL
binding result [3]: binds

B5: MCG-TatA (wild-type E. coli TatA extended at the N-terminus by Met-Cys-Gly) (natural protein, Escherichia coli)
chain: MCGMGGISIWQLLIIAVIVVLLFGTKKLGSIGSDLGASIKGFKKAMSDDEPKQDKTSQDADFTAKTIADKQADTNQEQAKTEDAKRHDKEQV
notes: three additional amino acids Met-Cys-Gly at the N-terminus, numbered M(-3)C(-2)G(-1); TatA, Escherichia coli, wild type, 89 amino acids, Met1 kept after the extension; The single chain of the disulphide-linked dimer d-MCG-TatA; It is used here for the subunit-to-subunit rows of the dimer structure and of the cross-link; source: in C12E9 with Superdex 200 gel filtration for blue-native PAGE; …
binding result [4]: binds
